Experimental findings from PMC3058826 are described below.

The assay concerns the target H3(1–15)K4 peptide (UniProt P68431). The assay is described as follows: ITC. On the technique in general: ITC needs no label: the signal is the heat of the interaction.

Broadly, the Kd is a measure of binding affinity in units of concentration. Low values mean higher affinity, high ones lower affinity.

Consider “TRIM24 PHD-Bromo (PHD-linker-Bromo segment, residues 824–1006), wild type (from UniProt O15164 824-1006) (domain or fragment)”, for which the Kd was 8.6 µM. This counts as single-digit micromolar.
